Measurements reported in PMC2654063, “Three New Structures of Left-Handed RadA Helical Filaments: Structural Flexibility of N-Terminal Domain Is Critical for Recombinase Activity” (PLoS ONE, 2009).

Substrate: Nc1ncnc2c1ncn2[C@@H]1O[C@H](COP(=O)(O)OP(=O)(O)OP(=O)(O)O)[C@@H](O)[C@H]1O
Test: purified protein
Assay type: biochemical, Saccharolobus solfataricus
Details: with ssDNA; labelled compound

Protein	Km [µM]	kcat [s⁻¹]
SsoRadA (Sulfolobus solfataricus RadA) (Saccharolobus solfataricus P2) (protein, purified recombinant protein; homo-oligomeric nucleoprotein filament on ssDNA; F73, R72, R83 given) MSNEVEQKKNIKTINDLPGISQTVINKLIEAGYSSLETLAVASPQDLSVAAGIPLSTAQKIIKEARDALDIRFKTALEVKKERMNVKKISTGSQALDGLLAGGIETRTMTEFFGEFGSGKTQLCHQLSVNVQLPPEKGGLSGKAVYIDTEGTFRWERIENMAKALGLDIDNVMNNIYYIRAINTDHQIAIVDDLQELVSKDPSIKLIVVDSVTSHFRAEYPGRENLAVRQQKLNKHLHQLTRLAEVYDIAVIITNQVMARPDMFYGDPTVAVGGHTLYHVPGIRIQLKKSRGNRRIARVVDAPHLPEGEVVFALTEEGIRDAEE	398 ± 52	0.000617 ± 5e-05
SsoRadA (Sulfolobus solfataricus RadA) (Saccharolobus solfataricus P2; R72P) (protein, purified recombinant protein; homo-oligomeric nucleoprotein filament on ssDNA; F73, R72, R83 given) MSNEVEQKKNIKTINDLPGISQTVINKLIEAGYSSLETLAVASPQDLSVAAGIPLSTAQKIIKEARDALDIPFKTALEVKKERMNVKKISTGSQALDGLLAGGIETRTMTEFFGEFGSGKTQLCHQLSVNVQLPPEKGGLSGKAVYIDTEGTFRWERIENMAKALGLDIDNVMNNIYYIRAINTDHQIAIVDDLQELVSKDPSIKLIVVDSVTSHFRAEYPGRENLAVRQQKLNKHLHQLTRLAEVYDIAVIITNQVMARPDMFYGDPTVAVGGHTLYHVPGIRIQLKKSRGNRRIARVVDAPHLPEGEVVFALTEEGIRDAEE	143 ± 10	0.000267 ± 1.7e-05
SsoRadA (Sulfolobus solfataricus RadA) (Saccharolobus solfataricus P2; R72G) (protein, purified recombinant protein; homo-oligomeric nucleoprotein filament on ssDNA; F73, R72, R83 given) MSNEVEQKKNIKTINDLPGISQTVINKLIEAGYSSLETLAVASPQDLSVAAGIPLSTAQKIIKEARDALDIGFKTALEVKKERMNVKKISTGSQALDGLLAGGIETRTMTEFFGEFGSGKTQLCHQLSVNVQLPPEKGGLSGKAVYIDTEGTFRWERIENMAKALGLDIDNVMNNIYYIRAINTDHQIAIVDDLQELVSKDPSIKLIVVDSVTSHFRAEYPGRENLAVRQQKLNKHLHQLTRLAEVYDIAVIITNQVMARPDMFYGDPTVAVGGHTLYHVPGIRIQLKKSRGNRRIARVVDAPHLPEGEVVFALTEEGIRDAEE	176 ± 23	0.000267 ± 1.7e-05
SsoRadA (Sulfolobus solfataricus RadA) (Saccharolobus solfataricus P2; R72A) (protein, purified recombinant protein; homo-oligomeric nucleoprotein filament on ssDNA; F73, R72, R83 given) MSNEVEQKKNIKTINDLPGISQTVINKLIEAGYSSLETLAVASPQDLSVAAGIPLSTAQKIIKEARDALDIAFKTALEVKKERMNVKKISTGSQALDGLLAGGIETRTMTEFFGEFGSGKTQLCHQLSVNVQLPPEKGGLSGKAVYIDTEGTFRWERIENMAKALGLDIDNVMNNIYYIRAINTDHQIAIVDDLQELVSKDPSIKLIVVDSVTSHFRAEYPGRENLAVRQQKLNKHLHQLTRLAEVYDIAVIITNQVMARPDMFYGDPTVAVGGHTLYHVPGIRIQLKKSRGNRRIARVVDAPHLPEGEVVFALTEEGIRDAEE	37 ± 11	0.000183 ± 3.3e-05
